Laboratory results published in patent US7608691B2, “Antibodies against IL-16 antagonist peptides” (Trustees of Boston University, priority 1999, dated 2009).

T1: IL-16 (Homo sapiens, UniProt Q14005)
T1 construct: Recombinant human IL-16 corresponding to the 121 C-terminal amino biologically active cytokine cleaved from natural pro-IL-16; polyhistidine (pET-30 LIC) (N, cleaved yes); made in house; host or cells: E. coli
T1 sequence (Q14005 1212-1332): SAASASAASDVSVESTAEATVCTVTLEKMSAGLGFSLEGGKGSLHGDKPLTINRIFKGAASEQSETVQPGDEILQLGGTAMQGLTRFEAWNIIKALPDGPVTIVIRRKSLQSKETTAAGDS

T2: natural and recombinant human IL-16 (Homo sapiens, UniProt Q14005)
T2 sequence (Q14005 1212-1332 limits assumed): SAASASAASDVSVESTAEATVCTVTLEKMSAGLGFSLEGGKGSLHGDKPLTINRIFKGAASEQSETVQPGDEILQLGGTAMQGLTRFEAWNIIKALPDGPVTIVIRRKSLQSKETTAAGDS

T3: murine IL-16 (Mus musculus, UniProt O54824)
T3 sequence (O54824 1205-1322 T1262D/E1263R/Q1264T limits assumed): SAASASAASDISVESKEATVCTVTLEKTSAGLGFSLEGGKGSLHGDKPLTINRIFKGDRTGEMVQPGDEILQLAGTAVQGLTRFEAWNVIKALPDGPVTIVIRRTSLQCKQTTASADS


How the values were obtained:
IL-16 = molecular target: T1, IL-16; assay: Modified Boyden chamber chemotaxis assay: inhibition of IL-16-stimulated T lymphocyte motility; assay type: cell-based; conditions: human T lymphocytes; rIL-16 10^-9, 10^-10 or 10^-11 M; peptide 10 μg/ml; 4 h
Experimental: (§1) The mononuclear cell layer was washed with medium 199 (M. A. Bioproducts, Walkersville, Md.) supplemented with 0.4% bovine serum albumin, 25 mM HEPES buffer, and 100 U/ml of penicillin and 100 μg/ml streptomycin (M199-HPS). Samples were enriched for T lymphocytes by nylon wool adherence as described (Julius, et al., Eur. J. Immunol. 3:645, 1973). The nonadherent cells were >95% CD3^+ as determined by flow cytometry.
Recombinant human IL-16 corresponding to the 121 C-terminal amino biologically active cytokine cleaved from natural pro-IL-16 was produced in E. coli as a polyhistidine fusion protein using the expression vector pET-30 LIC (Novagen, Madison, Wis.). Following lysis of transformed bacteria, the protein was purified by metal chelation chromatography and the N-terminal polyhistidine tag was removed by cleavage with enterokinase.
A series of oligopeptides derived from the 16 C-terminal of human IL-16 residues were prepared (FIG. 1) and tested for their ability to […] the T lymphocyte motility using a modified Boyden chemotaxis chamber assay.
Human T lymphocytes were loaded in the upper wells, and rIL-16 at concentrations of 10^−9 M, 10^−10 M or 10^−11 M was loaded in the lower wells, in the presence or absence of two 8-mer peptides corresponding to amino acids Arg^106 to Lys^113 (SEQ ID NO:24), and Glu^114 to Ser^121 (SEQ ID NO:46) of IL-16. […] To further define the residues mediating inhibition, the eight residue sequence from Arg^106 to Lys^113 was divided into RRKS (SEQ ID NO:2) and LQSK (SEQ ID NO:48).

[1] = molecular target: HIV-1 gp120 (strain HIV-13B) (Human immunodeficiency virus type 1 group M subtype B, UniProt P04578); conditions: gp120 0.5, 1.0, 5.0 μg/ml; peptide 10 μg/ml
Experimental: (§2) Cells were suspended (5×10^6 cells/ml) in M199-HPS and loaded into the upper wells, separated by an 8 μm pore size nitrocellulose membrane from lower wells. […] After a 4 h incubation at 37° C., the membranes were removed and stained with hematoxylin, dehydrated by sequential washes in ethanol and propanol, then washed in xylene to clarify the filter for cell counting by light microscopy. Cell migration was quantified by counting the number of cells in the filter that had moved beyond a depth of 50 μm in five separate fields in duplicate wells for all conditions. Cell counts were compared with unstimulated control cell migration which was normalized to 100%. Results are expressed as mean % control migration and the data analyzed for statistical significance (P<0.05) by Student=s t test.

Leu 3a mAb = assay: Chemotaxis assay: T cell migration in response to anti-CD4 mAb Leu 3a with peptide; assay type: cell-based; conditions: Leu 3a 0.5, 1.0, 5.0 μg/ml; peptide 10 μg/ml
Experimental: as §2

[2] = molecular target: T2, natural and recombinant human IL-16; conditions: cited from earlier work
murine IL-16 = molecular target: T3, murine IL-16; conditions: cited from earlier work
human T lymphocytes = assay: Chemotaxis assay: chemoattractant activity of mutated rIL-16; assay type: cell-based; conditions: 10^-8 to 10^-11 M
Experimental: as §1
The native IL-16 expression vector (pET-30/L-16^121) was used as a template for PCR mutagenesis to create four recombinant IL-16 (rIL-16) mutant constructs with progressive four amino acid deletions at the C-terminus (C-4 to C-16), as well as deletions of 12 or 22 N-terminal residues. Two double deletion constructs lacking the first 12 or 22 N-terminal residues as well as the last 16 C-terminal residues of IL-16 were also produced. Point mutations in C-terminal residues of rIL-16 were generated by site-directed mutagenesis using the Stratagene Quick Change Kit (Stratagene, La Jolla, Calif.) according to the manufacturer=s specifications. The point mutations included alanine substitution for Arg^106, Arg^107, and Arg^106 plus Arg^107.
IL-16 mutant constructs were created with progressive deletions of 4 C-terminal amino acids from C-4 through C-16 (FIG. 4). The C-12 construct terminates at Ser^108, retaining the RRKS motif. The C-16 construct terminates at Ile^105, deleting RRKS and succeeding downstream residues. These mutant IL-16 molecules were tested in chemotaxis assays.

[3] = system: Mixed Lymphocyte Reaction; assay: Inhibition of the one way mixed lymphocyte reaction (MLR); assay type: cell-based, human; conditions: for capacity to inhibit the MLR: responder T lymphocytes pre-treated, 10^-8 to 10^-11 M
Experimental: Stimulator cells for mixed lymphocyte reactions were prepared by incubating PBMC (10^6/ml) with 25 μg/ml mitomycin C for 30 min. The cells were then washed four times with RPMI 1640 medium supplemented with 25 mM HEPES buffer, 100 U/ml penicillin, and 100 μg/ml streptomycin (RPMI 1640-HPS), then resuspended in RPMI 1640-HPS supplemented with 10% fetal bovine serum (complete medium) at 10^6 cells/ml. Responder cells were prepared from an unrelated donor, suspended in complete medium at 10^6 cells/ml, and pre-incubated (1 h, 37° C.) with control buffer, or with rIL-16 or mutated rIL-16 constructs (10^−9 M to 10^−11 M). Stimulator cells were then added (1:1) and the cell mixtures were transferred in quadruplicate to 96-well round-bottom plates. Cell cultures were pulsed with [^3H] thymidine on day 5, harvested with a Titertek cell harvester, and counted in a Becton Dickinson scintillation counter on day 6. Results are expressed as mean % cpm above background. SEM.
To determine whether other biological activities of IL-16 are mediated by the C-terminal domain, the native and mutated rIL-16 constructs were tested for their capacity of inhibiting the one way MLR. Responder T lymphocytes were pre-treated with rIL-16 or control buffer, then cultured with mitomycin C-treated stimulator PBMC from an unrelated donor. Pre-treatment with 10^−8 M native rIL-16 reduced thymidine incorporation on day 6 by nearly 70%, compared with untreated cells.

Row | Molecule | inhibition of IL-16-stimulated T cell migration (IL-16) | chemoattractant activity of mutated rIL-16 (human T lymphocytes) | further results
1 | ETTAAGDS [SEQ ID NO:46] | only the Arg^106 to Lys^113 peptide (SEQ ID NO:24) inhibited IL-16 | – | –
2 | LQSK | Only RRKS (SEQ ID NO:2) inhibited IL-16 chemoattractant activity | – | –
3 | RRAS | inhibited IL-16 as effectively as the native RRKS | – | –
4 | RRKA | inhibited IL-16 as effectively as the native RRKS | – | –
5 | RRKS | inhibited IL-16 chemoattractant activity | – | blocking of cell migration in response to HIV-1 gp120 [1]: not blocked; blocking of cell migration in response to divalent anti-CD4 mAb Leu 3a (Leu 3a mAb): not blocked
6 | RRKSLQ | inhibited IL-16-stimulated T cell migration | – | –
7 | RRKSLQSK [SEQ ID NO:24] | inhibited IL-16 | – | –
8 | RRKSLQSKETTAAGDS [Arg106 to Ser121, synthetic oligopeptide corresponding to the 16 C-terminal amino acids of human IL-16] | – | – | inhibition of chemoattractant activity of natural and recombinant human IL-16 [2]: inhibit the chemoattractant activity; inhibition of chemoattractant activity of murine IL-16 (murine IL-16): inhibit the chemoattractant activity
9 | RSQRLK [SEQ ID NO:47, reference compound] | no inhibitory activity | – | –
10 | Arg^107 alone: rIL-16 point mutation Arg^107 to alanine (protein) SAASASAASDVSVESTAEATVCTVTLEKMSAGLGFSLEGGKGSLHGDKPLTINRIFKGAASEQSETVQPGDEILQLGGTAMQGLTRFEAWNIIKALPDGPVTIVIRAKSLQSKETTAAGDS | – | completely abrogated chemoattractant activity | –
11 | Arg^106 plus Arg^107: rIL-16 point mutation Arg^106 plus Arg^107 to alanine (protein) SAASASAASDVSVESTAEATVCTVTLEKMSAGLGFSLEGGKGSLHGDKPLTINRIFKGAASEQSETVQPGDEILQLGGTAMQGLTRFEAWNIIKALPDGPVTIVIAAKSLQSKETTAAGDS | – | completely abrogated chemoattractant activity | –
12 | native rIL-16: Recombinant human IL-16, 121 C-terminal amino acids of pro-IL-16, produced in E. coli (protein) SAASASAASDVSVESTAEATVCTVTLEKMSAGLGFSLEGGKGSLHGDKPLTINRIFKGAASEQSETVQPGDEILQLGGTAMQGLTRFEAWNIIKALPDGPVTIVIRRKSLQSKETTAAGDS | – | – | reduction of thymidine incorporation in MLR compared with untreated cells ([3]; pre-treatment with 10^-8 M, day 6): ~70%
13 | Arg^106 alone: rIL-16 point mutation Arg^106 to alanine (protein) SAASASAASDVSVESTAEATVCTVTLEKMSAGLGFSLEGGKGSLHGDKPLTINRIFKGAASEQSETVQPGDEILQLGGTAMQGLTRFEAWNIIKALPDGPVTIVIARKSLQSKETTAAGDS | – | retained full activity | –
14 | N-22: rIL-16 construct with deletion of 22 N-terminal amino acids (protein) TVTLEKMSAGLGFSLEGGKGSLHGDKPLTINRIFKGAASEQSETVQPGDEILQLGGTAMQGLTRFEAWNIIKALPDGPVTIVIRRKSLQSKETTAAGDS | – | comparable to native IL-16 | capacity to inhibit the MLR [3]: reduced but not eliminated
15 | N-12: rIL-16 construct with deletion of 12 N-terminal amino acids (protein) VESTAEATVCTVTLEKMSAGLGFSLEGGKGSLHGDKPLTINRIFKGAASEQSETVQPGDEILQLGGTAMQGLTRFEAWNIIKALPDGPVTIVIRRKSLQSKETTAAGDS | – | comparable to native IL-16 | capacity to inhibit the MLR [3]: reduced but not eliminated
16 | C-12: rIL-16 mutant with deletion of 12 C-terminal residues, retaining the RRKS motif (protein) SAASASAASDVSVESTAEATVCTVTLEKMSAGLGFSLEGGKGSLHGDKPLTINRIFKGAASEQSETVQPGDEILQLGGTAMQGLTRFEAWNIIKALPDGPVTIVIRRKS | – | active as native rIL-16 | –
17 | C-16: rIL-16 mutant terminating at Ile^105, deleting RRKS and succeeding downstream residues (protein) SAASASAASDVSVESTAEATVCTVTLEKMSAGLGFSLEGGKGSLHGDKPLTINRIFKGAASEQSETVQPGDEILQLGGTAMQGLTRFEAWNIIKALPDGPVTIVI | – | completely eliminated the chemoattractant activity | shift of the dose response of MLR inhibition versus native rIL-16 [3]: ~1 log; capacity to inhibit the MLR [3]: nearly as active as native rIL-16
